# Measurements published in CN113045647A (NANJING LEGEND BIOTECH CO LTD, dated 2021).
# B1: 人源Fab抗体AS182561 (Fab, E. coli expression supernatant) (Fab, V domains shown, not shown: large carriers)
# VH: EVQLVESGGGLVQPGGSLRLSCAASGFNIYSSYMHWVRQAPGKGLEWVASISPSYSYTSYADSVKGRFTISADTSKNTAYLQMNSLRAEDTAVYYCARYSYYGMDYWGQGTLVTVSA
# VL: DIQMTQSPSSLSASVGDRVTITCRASQSVSSAVAWYQQKPGKAPKLLIYSASSLYSGVPSRFSGSRSGTDFTLTISSLQPEDFATYYCQQPPWHGLITFGQGTKVEIK
# Molecular target: SARS-CoV-2-RBD(6×His融合蛋白，来自金斯瑞生物公司) (SARS-CoV-2, UniProt P0DTC2 319-541)
# Test: ELISA, E. coli expression supernatant on coated SARS-CoV-2-RBD His
binder,measurement,value
B1,binding result,binds
